# Assay results as given in patent publication US20120231006A1 (Amgen, published 2012).
# Changes are numbered by the printed parent chain.
# B1: mAb 2D2.1 (antibody, human IgG2, lambda, V domains shown)
# VH: QVQLQQWGAGLLKPSETLSLTCAVYGGSFSGYYWSWIRQPPGKGLEWIGEIDHSGRINYNPALKSRLTISVDTSKNQFSLKLSSVTAADTAVYYCARAGSGGYEDWFDPWGQGTLVTVSS
# VL: QSVLTQPPSVSGAPGQRVTISCTGSSSNIGAGYNVHWYQQFPRTDPKLLIYVYNIRPSGVPDRFSGSRSGTSASLAITGLQTEDEADYYCQSYDSSLSGVVFGGGTKLTVLG
# notes: fully human IgG2 lambda, Campaign 1; also called mAb 2D.1
# B2: mAb 2C1.1 (antibody, human IgG2, lambda, V domains shown)
# VH: B1 VH with R56S, I57T
# VL: B1 VL
# notes: fully human IgG2 lambda, Campaign 1; tested hybridoma-purified and recombinant; also called anti-hOrai1 mAb 2C1.1
# B3: mAb 2B7.1 (antibody, human IgG2, V domains shown)
# VH: B1 VH with R56S, I57T
# VL: B1 VL with A31T
# notes: fully human, Campaign 1
# B4: mAb 2B4.1 (antibody, human IgG2, lambda, V domains shown)
# VH: QVQLVQSGAEVKKPGASVKVSCKASGYTFTDYYMHWVRQAPGQGLEWMGWINPNSGGTNYVQKFQDRVTMTRDTSITTAYMELTRLRSDDTAVYYCAREEGDYGMDVWGQGTTVTVSS
# VL: QSVLTQPPSVSGAPGQRVTISCTGSNSNIGTGYDVHWYQKLPGTAPRLLIYSHFNRPSGVPDRFSGSTSGTSASLAITGLQAEDEADYYCQSYDSSLSGSVFGGGTKLTVLG
# Tests used:
# human Orai1 = human Orai1 (human, UniProt Q96D31 1-301); assay: cell-based or functional assay
# [1] = target: T1, hOrai1-mOrai1 ECL2 (RPTSKPPA) protein (human/mouse chimera, UniProt Q96D31 1-301); assay: FACS, 293EBNA, RFI-POC grade; parameters: concentration or dose not given beside the values
# T1 construct: also called Ch
# [2] = target: T2, hOrai1-mOrai1 ECL2 (…) protein (human/mouse chimera, UniProt Q96D31 1-301); assay: FACS, 293EBNA, RFI-POC grade; parameters: concentration or dose not given beside the values
# T2 construct: also called Ch
# T2 sequence (Q96D31 other isoform, or with tags, fused parts or gaps): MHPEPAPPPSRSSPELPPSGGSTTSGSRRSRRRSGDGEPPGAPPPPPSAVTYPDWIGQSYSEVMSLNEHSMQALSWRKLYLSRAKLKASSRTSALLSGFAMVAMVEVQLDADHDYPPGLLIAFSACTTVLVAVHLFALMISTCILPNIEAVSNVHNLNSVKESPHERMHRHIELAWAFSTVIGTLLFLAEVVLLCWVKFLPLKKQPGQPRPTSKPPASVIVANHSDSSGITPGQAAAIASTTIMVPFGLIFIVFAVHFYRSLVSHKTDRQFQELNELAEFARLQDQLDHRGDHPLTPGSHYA
# [3] = target: T3, hOrai1-mOrai1 ECL2 (…) protein (human/mouse chimera, UniProt Q96D31 1-301); assay: FACS, 293EBNA, RFI-POC grade; parameters: concentration or dose not given beside the values; remark: listed apart in the source
# T3 construct: also called Ch
# T3 sequence (Q96D31 other isoform, or with tags, fused parts or gaps): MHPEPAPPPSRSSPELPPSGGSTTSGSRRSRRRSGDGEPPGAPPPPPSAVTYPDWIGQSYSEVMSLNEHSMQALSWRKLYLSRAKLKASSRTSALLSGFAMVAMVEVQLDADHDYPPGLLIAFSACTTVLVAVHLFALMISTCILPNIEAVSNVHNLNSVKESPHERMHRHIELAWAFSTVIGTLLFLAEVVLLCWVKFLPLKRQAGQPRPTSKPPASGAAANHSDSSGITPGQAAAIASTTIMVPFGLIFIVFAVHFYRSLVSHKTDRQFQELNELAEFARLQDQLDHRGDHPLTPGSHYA
# [4] = target: T4, mOrai1-hOrai1 ECL2 chimeric protein (human/mouse chimera, UniProt Q8BWG9 1-304 (mouse entry)); assay: FACS, 293EBNA, RFI-POC grade; parameters: concentration or dose not given beside the values
# T4 construct: mouse Orai1 with human ECL2; also called Ch
# [5] = target: T5, hOrai1-mOrai1 ECL2 (SKPPA) protein (human/mouse chimera, UniProt Q96D31 1-301); assay: FACS, 293EBNA, RFI-POC grade; parameters: concentration or dose not given beside the values
# T5 construct: also called Ch
# [6] = target: T6, hOrai1-mOrai1 ECL2 (…) protein (human/mouse chimera, UniProt Q96D31 1-301); assay: FACS, 293EBNA, RFI-POC grade; parameters: concentration or dose not given beside the values; remark: listed apart in the source
# T6 construct: also called Ch
# T6 sequence (Q96D31 other isoform, or with tags, fused parts or gaps): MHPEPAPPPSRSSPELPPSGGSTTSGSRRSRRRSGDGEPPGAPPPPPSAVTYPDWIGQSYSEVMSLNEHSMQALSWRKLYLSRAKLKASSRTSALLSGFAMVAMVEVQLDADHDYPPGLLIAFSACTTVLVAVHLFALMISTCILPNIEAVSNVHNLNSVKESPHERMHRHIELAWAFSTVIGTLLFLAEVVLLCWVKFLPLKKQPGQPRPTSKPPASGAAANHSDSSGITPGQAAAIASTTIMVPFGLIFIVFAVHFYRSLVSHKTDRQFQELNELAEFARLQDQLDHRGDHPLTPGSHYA
# [7] = target: T7, hOrai1-mOrai1 ECL2 chimeric protein (human/mouse chimera, UniProt Q96D31 1-301); assay: FACS, 293EBNA; parameters: concentration or dose not given beside the values
# T7 construct: human Orai1 with mouse ECL2; also called Ch
# Protocol: (§1) FACS binding analysis. Transfected 293EBNA cells transiently expressed hOrai1-mOrai1 ECL2 or mOrai1-hOrai1 ECL2 chimera. The transfected cells were harvested at 48 hours post-transfection. Cells transfected with pcDNA3.1 were used as negative controls. Cells were washed once with ice-cold 1×PBS, resuspended in ice-cold FACS buffer (1×D-PBS+2% goat serum), and 2×10⁵ cells in 100 μL were stained per antibody combination. All antibody incubation steps were performed on ice for 1 hour. […] Next, the unlabelled antibody was detected using goat F(ab′)₂ anti-mouse or anti-human IgG-phycoerythrin (IgG-PE), followed by a wash with 200 μL of ice-cold FACS buffer before flow cytometry analysis. Unstained cells and cells stained with detecting antibodies were used as negative controls. The values of relative level of fluorescence were calculated using FCS Express (De Novo Software) and mean values were calculated using log-transformed data (geometric mean). The results of the FACS analysis are shown in FIG. 15A-B, which supports the conclusion that the hOrai1 ECL2 domain is the region of hOrai1 where antibodies of the present invention bind.
# (§2) Representative results of FACS analysis of binding to the mutant hOrai1-mOrai1 ECL2 chimera described above by exemplary anti-hOrai1 antibodies of the present invention are shown in FIG. 17A-D, Table 10A and Table 10B below. Table 10A (Campaign 1) and Table 10B (Campaign 2) show the gain in binding ability of exemplary monoclonal antibodies to hOrai 1-mOrai 1 ECL2 chimera mutants as determined by FACS.
# [8] = target: T8, hOrai1-mOrai1 ECL2 (PASGAA) protein (human/mouse chimera, UniProt Q96D31 1-301); assay: FACS, 293EBNA; parameters: concentration or dose not given beside the values
# T8 construct: also called Ch
# Protocol: as §1, §2
# [9] = target: T9, hOrai1-mOrai1 ECL2 (GAA) protein (human/mouse chimera, UniProt Q96D31 1-301); assay: FACS, 293EBNA; parameters: concentration or dose not given beside the values
# T9 construct: also called Ch
# Protocol: as §1, §2
# [10] = target: T10, hOrai1-mOrai1 ECL2 (AANVST) protein (human/mouse chimera, UniProt Q96D31 1-301); assay: FACS, 293EBNA; parameters: concentration or dose not given beside the values
# T10 construct: also called Ch
# Protocol: as §1, §2
# [11] = target: T11, hOrai1-mOrai1 ECL2 (VST) protein (human/mouse chimera, UniProt Q96D31 1-301); assay: FACS, 293EBNA; parameters: concentration or dose not given beside the values
# T11 construct: also called Ch
# Protocol: as §1, §2
# [12] = target: T12, hOrai1-mOrai1 ECL2 (…) protein (human/mouse chimera, UniProt Q96D31 1-301); assay: FACS, 293EBNA; parameters: concentration or dose not given beside the values
# T12 construct: also called Ch
# Protocol: as §1, §2
# T12 sequence (Q96D31 other isoform, or with tags, fused parts or gaps): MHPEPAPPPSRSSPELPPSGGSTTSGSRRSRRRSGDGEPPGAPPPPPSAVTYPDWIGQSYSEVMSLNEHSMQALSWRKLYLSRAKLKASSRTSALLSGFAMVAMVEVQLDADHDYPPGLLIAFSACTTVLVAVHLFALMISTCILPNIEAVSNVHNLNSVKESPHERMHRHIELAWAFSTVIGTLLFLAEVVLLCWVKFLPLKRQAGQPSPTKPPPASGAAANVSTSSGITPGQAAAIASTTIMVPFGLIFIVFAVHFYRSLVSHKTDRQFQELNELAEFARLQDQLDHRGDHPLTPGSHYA
# [13] = target: T13, mOrai1-hOrai1 ECL2 (AESVIV) protein (human/mouse chimera, UniProt Q8BWG9 1-304 (mouse entry)); assay: FACS, 293EBNA transfectants [D00028 FIG. 16B]
# T13 construct: also called Ch
# Text: (§3) FIG. 16A-D illustrates the results of FACS analysis showing binding to the indicated mOrai1-hOrai1 ECL2 chimeric mutants expressed on the surface of HEK-293-EBNA cells. Transfected cells were stained first with recombinant monoclonal antibodies then counter-stained with a secondary phycoerythrin-labeled goat (“Gt”) anti-human (“Hu”) IgG F(ab′)₂ antibody fragment and visualized using FACS. In FIG. 16B and FIG. 16D, The values of Relative Fluorescence Intensity as Percent of Control (RFI-POC) are calculated from the relative fluorescence intensity geometric mean (Geo Mean). The geometric mean is an average calculated by multiplying a series of numbers and taking the nth root where n is the number of numbers in the series. It is a statistical average of a set of transformed numbers often used to represent a central tendency in a highly variable data set that minimizes the effects of extreme values.
# (§4) Table 11A and Table 11B feature a schematic representation of the POC data from FIG. 16B and FIG. 16D, respectively, where the binding results are recorded as (+++) denoting binding POC from 40% to 100%, (++) for POC of 5% to less than 40%, (+) for POC from 1% to less than 5% and (−) as lack of binding with POC less than 1%.
# [14] = target: T14, mOrai1-hOrai1 ECL2 (…) protein (human/mouse chimera, UniProt Q8BWG9 1-304 (mouse entry)); assay: FACS, 293EBNA transfectants [D00028 FIG. 16B]
# T14 construct: also called Ch
# Text: as §3, §4
# cynomolgus Orai1 = cynomolgus Orai1 (cynomolgus monkey, UniProt Q96D31 1-301 (human entry)); assay: cell-based or functional assay
# [15] = target: T1, hOrai1-mOrai1 ECL2 (RPTSKPPA) protein; assay: FACS, 293EBNA transfectants [D00032 FIG. 17B]
# Protocol: as §1, with “The results of the FACS analysis are shown in FIG. 15A-B, which supports the conclusion that the hOrai1 ECL2 domain is the region of hOrai1 where antibodies of the present invention bind.” left out
# as §2
# [16] = target: T3, hOrai1-mOrai1 ECL2 (…) protein; assay: FACS, 293EBNA transfectants [D00032 FIG. 17B]
# Protocol: as §1, with “The results of the FACS analysis are shown in FIG. 15A-B, which supports the conclusion that the hOrai1 ECL2 domain is the region of hOrai1 where antibodies of the present invention bind.” left out
# as §2
# T1 sequence (Q96D31 other isoform, or with tags, fused parts or gaps): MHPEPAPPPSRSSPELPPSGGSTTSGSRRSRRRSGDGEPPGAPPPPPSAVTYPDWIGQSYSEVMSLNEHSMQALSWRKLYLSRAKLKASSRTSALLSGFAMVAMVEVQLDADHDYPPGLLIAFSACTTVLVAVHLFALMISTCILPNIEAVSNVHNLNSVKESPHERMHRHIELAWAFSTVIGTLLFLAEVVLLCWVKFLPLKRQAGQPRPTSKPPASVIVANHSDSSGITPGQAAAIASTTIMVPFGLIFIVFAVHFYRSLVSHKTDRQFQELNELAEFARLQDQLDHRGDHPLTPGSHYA
# T9 sequence (Q96D31 other isoform, or with tags, fused parts or gaps): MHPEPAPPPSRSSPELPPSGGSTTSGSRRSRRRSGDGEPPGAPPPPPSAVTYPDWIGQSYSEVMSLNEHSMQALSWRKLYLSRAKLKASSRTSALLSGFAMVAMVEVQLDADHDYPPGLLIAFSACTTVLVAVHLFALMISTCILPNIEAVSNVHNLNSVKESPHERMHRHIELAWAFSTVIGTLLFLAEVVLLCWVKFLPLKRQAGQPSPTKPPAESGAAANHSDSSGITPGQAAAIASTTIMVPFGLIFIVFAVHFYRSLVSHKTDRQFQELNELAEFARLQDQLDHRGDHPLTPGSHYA
# T5 sequence (Q96D31 other isoform, or with tags, fused parts or gaps): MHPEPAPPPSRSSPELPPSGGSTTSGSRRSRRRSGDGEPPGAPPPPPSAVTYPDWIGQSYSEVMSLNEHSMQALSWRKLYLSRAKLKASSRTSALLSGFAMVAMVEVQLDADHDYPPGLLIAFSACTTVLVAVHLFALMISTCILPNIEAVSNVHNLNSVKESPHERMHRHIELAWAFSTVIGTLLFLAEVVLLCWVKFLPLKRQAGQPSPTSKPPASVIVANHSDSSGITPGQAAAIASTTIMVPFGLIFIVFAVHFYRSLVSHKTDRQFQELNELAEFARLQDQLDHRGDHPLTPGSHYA
# T7 sequence (Q96D31 other isoform, or with tags, fused parts or gaps mutant): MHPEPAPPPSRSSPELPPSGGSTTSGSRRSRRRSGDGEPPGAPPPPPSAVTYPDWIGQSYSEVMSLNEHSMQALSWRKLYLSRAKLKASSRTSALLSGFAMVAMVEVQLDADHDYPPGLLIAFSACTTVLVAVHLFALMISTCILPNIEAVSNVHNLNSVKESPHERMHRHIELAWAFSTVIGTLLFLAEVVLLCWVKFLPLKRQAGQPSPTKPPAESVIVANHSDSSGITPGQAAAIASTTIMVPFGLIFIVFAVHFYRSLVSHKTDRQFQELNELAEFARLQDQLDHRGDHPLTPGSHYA
# T8 sequence (Q96D31 other isoform, or with tags, fused parts or gaps): as the sequence (Q96D31 other isoform, or with tags, fused parts or gaps mutant) above, with A216P, E217A, V219G, I220A, V221A counted along it
# T11 sequence (Q96D31 other isoform, or with tags, fused parts or gaps): as the sequence (Q96D31 other isoform, or with tags, fused parts or gaps mutant) above, with H224V, D226T counted along it
# Chain of cynomolgus Orai1 (Q96D31 other isoform, or with tags, fused parts or gaps): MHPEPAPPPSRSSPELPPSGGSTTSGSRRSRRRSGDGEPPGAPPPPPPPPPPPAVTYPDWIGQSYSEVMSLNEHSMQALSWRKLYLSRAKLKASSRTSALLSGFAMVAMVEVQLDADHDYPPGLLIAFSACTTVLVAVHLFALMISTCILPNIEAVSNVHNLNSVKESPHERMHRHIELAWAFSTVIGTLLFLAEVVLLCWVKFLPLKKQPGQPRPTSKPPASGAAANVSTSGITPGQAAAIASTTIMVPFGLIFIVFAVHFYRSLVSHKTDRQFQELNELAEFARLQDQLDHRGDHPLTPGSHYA
# Chain of human Orai1 (Q96D31 whole entry): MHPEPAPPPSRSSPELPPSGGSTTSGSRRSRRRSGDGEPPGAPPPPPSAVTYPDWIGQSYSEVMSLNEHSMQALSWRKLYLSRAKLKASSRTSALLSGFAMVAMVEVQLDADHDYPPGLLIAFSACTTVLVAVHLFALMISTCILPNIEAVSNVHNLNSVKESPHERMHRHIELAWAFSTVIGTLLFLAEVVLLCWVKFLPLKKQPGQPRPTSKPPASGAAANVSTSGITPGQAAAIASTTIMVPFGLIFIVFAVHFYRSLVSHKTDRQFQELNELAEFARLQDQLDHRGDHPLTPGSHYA
# T10 sequence (Q96D31 other isoform, or with tags, fused parts or gaps): as the sequence (Q96D31 other isoform, or with tags, fused parts or gaps mutant) above, with V221A, H224V, D226T counted along it
# T4 sequence (Q8BWG9 other isoform, or with tags, fused parts or gaps mutant): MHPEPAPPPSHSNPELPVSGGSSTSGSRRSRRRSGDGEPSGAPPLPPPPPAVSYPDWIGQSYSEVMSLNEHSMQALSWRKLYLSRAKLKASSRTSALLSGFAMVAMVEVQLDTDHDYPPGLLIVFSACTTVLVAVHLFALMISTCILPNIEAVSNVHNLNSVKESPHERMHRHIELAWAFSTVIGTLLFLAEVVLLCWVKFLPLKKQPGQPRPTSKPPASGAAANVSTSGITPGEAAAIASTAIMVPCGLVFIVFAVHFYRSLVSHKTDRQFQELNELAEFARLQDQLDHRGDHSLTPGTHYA
# T13 sequence (Q8BWG9 other isoform, or with tags, fused parts or gaps): as the sequence (Q8BWG9 other isoform, or with tags, fused parts or gaps mutant) above, with P218A, A219E, G221V, A222I, A223V counted along it
# T14 sequence (Q8BWG9 other isoform, or with tags, fused parts or gaps): as the sequence (Q8BWG9 other isoform, or with tags, fused parts or gaps mutant) above, with P218A, A219E, G221V, A222I, A223V, V226H, T228D counted along it
Binder,"IC50, NFAT-mediated luciferase assay (FIG. 6B) (human Orai1) [nM]","IC50, NFAT-mediated luciferase assay (FIG. 6C) (human Orai1) [nM]",percent of control (POC) of FACS Geo Mean [1] [%],percent of control (POC) of FACS Geo Mean [2] [%],percent of control (POC) of FACS Geo Mean [3] [%],percent of control (POC) of FACS Geo Mean [4] [%],percent of control (POC) of FACS Geo Mean [5] [%],percent of control (POC) of FACS Geo Mean [6] [%],percent of control (POC) of FACS Geo Mean [7] [%],percent of control (POC) of FACS Geo Mean [8] [%],percent of control (POC) of FACS Geo Mean [9] [%],percent of control (POC) of FACS Geo Mean [10] [%],percent of control (POC) of FACS Geo Mean [11] [%],percent of control (POC) of FACS Geo Mean [12] [%],binding result [13],binding result [14],also measured
B1,2.8,2.7,40 to 100,40 to 100,40 to 100,40 to 100,5 to 40,40 to 100,< 1,< 1,< 1,< 1,< 1,< 1,–,–,–
B2,4.4,1.8,40 to 100,40 to 100,40 to 100,40 to 100,5 to 40,40 to 100,< 1,< 1,< 1,< 1,< 1,< 1,binds,binds,"IC50 of ICRAC current block, whole-cell patch clamp, HEK-293/hOrai1/hSTIM1 BB6.3 (human Orai1): 55.9 nM; IC50 IL-4 release, cynomolgus whole blood, Cyno # 1 (cynomolgus Orai1): 0.921 nM; IC50 IL-4 release, cynomolgus whole blood, Cyno # 2 (cynomolgus Orai1): 6.34 nM; IC50 IL-4 release, cynomolgus whole blood, Cyno # 3 (cynomolgus Orai1): 0.429 nM; IC50 IL-5 release, cynomolgus whole blood, Cyno # 1 (cynomolgus Orai1): 1.56 nM; IC50 IL-5 release, cynomolgus whole blood, Cyno # 2 (cynomolgus Orai1): 15.2 nM; IC50 IL-5 release, cynomolgus whole blood, Cyno # 3 (cynomolgus Orai1): 0.815 nM; IC50 IL-17 release, cynomolgus whole blood, Cyno # 1 (cynomolgus Orai1): 0.939 nM; IC50 IL-17 release, cynomolgus whole blood, Cyno # 2 (cynomolgus Orai1): 0.95 nM; IC50 IL-17 release, cynomolgus whole blood, Cyno # 3 (cynomolgus Orai1): 0.32 nM"
B3,4.2,3.5,40 to 100,40 to 100,40 to 100,40 to 100,5 to 40,40 to 100,< 1,< 1,< 1,< 1,< 1,< 1,binds,binds,–
B4,–,1800,–,–,–,–,1 to 5,–,< 1,< 1,< 1,< 1,< 1,< 1,–,–,binding result [15]: binds; binding result [16]: binds
